In the data set the test system is ATP. In words: switch fluorescence ratio, 500 uM ATP over buffer (Cy3 cluster intensity, sum of 5 cycles each) (fold (ratio)); higher = stronger signal-on switching upon ATP binding; sequences stand for … in TCGTCGGCAGCGTCAGATGTGTATAAGAGACAGTTTTTTTTTTTTTTTTTTTTTTTTT…TC. Conditions: aptamer strand: ATP DNA aptamer (quencher-CACCTGGGGGAGTATTGCGGAGGAAGG + anchor), 100 nM annealed; ATP concentration: 500 uM. The method in brief: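 Exposure to 500 uM ATP lasted 15 min at 22 °C before imaging, and a selection-buffer image was taken beforehand, for Cy3-labelled switching-strand clusters on a modified Illumina MiSeq flow-cell annealed to 100 nM quencher-labelled ATP aptamer. Five buffer/ATP cycles were run with NaOH stripping and re-annealing between them. The fluorescence ratio per cluster is summed target-cycle over summed buffer-cycle Cy3 intensity, averaged per switch-domain sequence. Clusters outside 100-1000 RFU were excluded.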

± gives the standard deviation of the averaged measurements.

Turning to ATTCTACTGA, the switch fluorescence ratio was 1.06 ± 0.062.

On to GGGGCTCTCG, for which the switch fluorescence ratio is 0.99 ± 0.012.

Take GGAAGGTA: the switch fluorescence ratio stood at 0.997 ± 0.03.

Turning to GTTAAAAAAT, the switch fluorescence ratio was 1.06 ± 0.17.

In the case of ATTAAGGGTT, the switch fluorescence ratio amounted to 1.02 ± 0.025.

GGGGTTTCAG: the switch fluorescence ratio was 1.02 ± 0.012.

Consider GTGTTTTCCA, for which the switch fluorescence ratio amounted to 0.985 ± 0.036.

Consider AAAAAGCAGG, for which the switch fluorescence ratio turned out to be 1.13 ± 0.14.

In the case of AGTATAGCGA, the switch fluorescence ratio turned out to be 1.01 ± 0.035.

Turning to TAAGGGCAAG, the switch fluorescence ratio was found to be 1.01 ± 0.013.

As for GTAGCCTGGT, the switch fluorescence ratio came out at 0.989 ± 0.041.

As to TATTGCTACT, the switch fluorescence ratio was 1.0114 ± 6.4e-05.

For the sequence TTAGGCGCCC, the switch fluorescence ratio stood at 0.981 ± 0.029.

For TTGCTCAGGG, the switch fluorescence ratio was 1.03 ± 0.041.

For the sequence GTTGACTCAT, the switch fluorescence ratio was found to be 0.97827 ± 0.00051.

Regarding GGTTGGCTCG, the switch fluorescence ratio worked out at 1 ± 0.025.

GAGCTTGGGG: the switch fluorescence ratio worked out at 0.991 ± 0.028.

On to TAAGGGAAGC, for which the switch fluorescence ratio worked out at 1.04 ± 0.04.

Regarding CCGGTTTTGC, the switch fluorescence ratio was 1.21 ± 0.14.

Regarding GTTATACGGG, the switch fluorescence ratio was determined as 1.01 ± 0.024.

As to GGAAGGGGAA, the switch fluorescence ratio came to 1.01 ± 0.028.

As to TTGCAGGGT, the switch fluorescence ratio was 0.9804 ± 0.0019.

Consider CTGGTCAGGG, for which the switch fluorescence ratio turned out to be 0.988 ± 0.013.

For the sequence TCGTAGTCGT, the switch fluorescence ratio came out at 0.995 ± 0.064.

Turning to GAATATATAG, the switch fluorescence ratio came out at 0.965 ± 0.011.

On to GTTTGAGACG, for which the switch fluorescence ratio came out at 0.903 ± 0.044.

Turning to TGGTTAAACT, the switch fluorescence ratio came to 0.98 ± 0.027.

Take CAGGTTGAAG: the switch fluorescence ratio was determined as 0.9631 ± 0.0069.

With AAGTCTTTGG, the switch fluorescence ratio was found to be 0.9599 ± 0.0072.

With GCTGGGACAG, the switch fluorescence ratio turned out to be 0.999 ± 0.032.

For TTAAGGTTTT, the switch fluorescence ratio was 1 ± 0.03.

For the sequence TCAGGTGGGG, the switch fluorescence ratio was determined as 1.07 ± 0.046.

As to GGCACTATAT, the switch fluorescence ratio was found to be 1.04 ± 0.023.

As to CACGGGGCTT, the switch fluorescence ratio worked out at 1.02 ± 0.021.

Regarding TTTACCGGAT, the switch fluorescence ratio is 1.05 ± 0.024.

CGGGGCAAAG: the switch fluorescence ratio was determined as 1.96 ± 1.6.

With AGTCCCGCCT, the switch fluorescence ratio is 1.12 ± 0.14.

With TCAGATAGCG, the switch fluorescence ratio was determined as 0.98 ± 0.043.

For AAGGATCTGG, the switch fluorescence ratio is 0.977 ± 0.026.

In the case of TTTTACCATT, the switch fluorescence ratio amounted to 1.09 ± 0.061.

With AAAGGGGTG, the switch fluorescence ratio is 1.06 ± 0.016.

Take ACCCTCCGGC: the switch fluorescence ratio is 2.45 ± 0.026.

In the case of TCCTTTTGT, the switch fluorescence ratio was found to be 1.02 ± 0.068.

Take CTAAATAGAA: the switch fluorescence ratio stood at 0.983 ± 0.074.

As for TTTGTAGTCA, the switch fluorescence ratio worked out at 1.05 ± 0.083.

In the case of GGGATGAGGG, the switch fluorescence ratio was 0.97 ± 0.037.

Take TGGCTGGTGT: the switch fluorescence ratio came out at 1.02 ± 0.08.

Turning to TCATGACGT, the switch fluorescence ratio worked out at 0.9921 ± 0.0037.

With GGCCGTGTGG, the switch fluorescence ratio came out at 0.998 ± 0.023.

On to CTCCCGTCCA, for which the switch fluorescence ratio is 1.28 ± 0.085.

With GGGGTTGTTT, the switch fluorescence ratio was found to be 1.03 ± 0.08.

As to TATGGCCAGC, the switch fluorescence ratio was determined as 0.994 ± 0.047.

For the sequence TTTGTGGTCG, the switch fluorescence ratio came to 1.02 ± 0.031.

CGGGGCGTGC: the switch fluorescence ratio is 1.01 ± 0.029.

With AGGTTGAAAA, the switch fluorescence ratio came to 0.963 ± 0.032.

Turning to CCTGCGGGG, the switch fluorescence ratio was 1.11 ± 0.022.

Turning to TGGGGGCCTG, the switch fluorescence ratio turned out to be 0.99 ± 0.033.

As to TAGGATCTGG, the switch fluorescence ratio came out at 0.995 ± 0.027.

Consider GGTGTGCTTT, for which the switch fluorescence ratio was found to be 1.02 ± 0.025.

As to AATATAGTAT, the switch fluorescence ratio was determined as 0.998 ± 0.034.

On to ATAGCAAAAT, for which the switch fluorescence ratio came to 1.07 ± 0.13.

Consider AAAAAAAAAT, for which the switch fluorescence ratio was determined as 1.04 ± 0.03.

For CGAAATATCT, the switch fluorescence ratio amounted to 1.04 ± 0.058.

As to ATTTCGTTGC, the switch fluorescence ratio was 1.06 ± 0.058.

Consider CGGAGCAGTT, for which the switch fluorescence ratio was 2.46 ± 0.41.

With TGGGAAAATC, the switch fluorescence ratio worked out at 1.63 ± 0.81.

With AATTACCGGT, the switch fluorescence ratio worked out at 0.979 ± 0.045.

(Values after the supplement of paper PMC10126150.)
